In patent US20050050591A1 (published 2005):

Target: Cdc2MsB, A-type cyclin-dependent kinase of Medicago sativa (two-hybrid bait, GAL4 DNA binding domain fusion) (Medicago sativa, UniProt P04386 1-147; Q05006 1-294)
Experiment: yeast two-hybrid (growth on selective medium, beta-galactosidase)
Excerpt: FIG. 5. Interaction in a yeast two-hybrid assay of alfalfa Cdc2-type or Cdc2-related kinases and different D-type cyclins and myosin. The different Cdc2Ms kinase cDNAs are cloned in the pGBT9 bait vector and the cDNAs of the interacting partners in the pGAD424 activation domain vector. (A) Growth of PJ69-4a yeast cells transformed with expression vectors comprising the indicated protein coding sequences on the agar surface of a selective medium lacking tryptophan, leucine, adenine and histidine. The relative growth values were also determined in liquid cultures and are numerically indicated. (B) Quantification of β-galactosidase enzyme acitivity of yeast strains described in (A).
The yeast strain PJ69-4A [MATa trp1-901, leu2-3,112 ura3-52, his3-200 gal4delta, gal80delta GAL2-ADE2, LYS2:: GAL1-HIS3, met2::GAL7-lacZ] (James et al. 1996), which contains three reporter genes (HIS3, ADE2 and lacZ), was used in library screening, growth tests and β-galactosidase assays. Transformation of yeast with pGBT9, pGAD424, pBD-GAL4 and pAD-GAL4 constructs was performed as described by Schiesti and Gietz (1989). The transformation mixture was plated on yeast dropout selection media either lacking leucine and tryptophan (SD-Trp-Leu) for testing the transformation efficiency or on media lacking leucine, tryptophan and histidine, for testing protein-protein interactions. […]

B1: MtCycDm, novel D-type cyclin of Medicago truncatula (two-hybrid prey, GAL4 activation domain fusion) (other, not shown: large carriers)
chain: MIEEEQLPAILMPSDCELLCGEDSSEVLTGDLPECSSDLDSSSSSQLPSSSLFAEEEEDSIAVFIEHEFKFVPGFDYVSRFQSRSLESSTREEAIAWILKVHEYYGFQPLTAYLSVNYMDRFLDSRPLPGIKWMATATFICCMFVFSSKDGGPLVPSLLDFQIEGAKYIFQPRTMLIMELLVLTILDWRLRSITHLVSSVSLRATRFTGTFNHFIISRATEIILSNIRDASFLTYRPSCIAAAAILSAANEIPNWSFVNPEHAESWCEGLSKEKIIGCYELIQEIVSSNNRRNAPKVLPQLRVTARTTRWSTVSSLSSSPSSSSSPSYSLSYKKRKLNSCFWVDVDKGNSEGREKKQTR
notes: Tested only as a yeast two-hybrid fusion; The order GAL4 domain then insert follows the vector design; also called cyclin D of the invention; MTCYCDM gene product
B1: no binding.
